Measurements as given in patent publication US20100145007A1 (Janssen / Centocor, published 2010).

T1: human GPCR135 (human, UniProt Q9NSD7 1-469)
T1 construct: whole, on cells; also called SALPR
T1 sequence (looked up): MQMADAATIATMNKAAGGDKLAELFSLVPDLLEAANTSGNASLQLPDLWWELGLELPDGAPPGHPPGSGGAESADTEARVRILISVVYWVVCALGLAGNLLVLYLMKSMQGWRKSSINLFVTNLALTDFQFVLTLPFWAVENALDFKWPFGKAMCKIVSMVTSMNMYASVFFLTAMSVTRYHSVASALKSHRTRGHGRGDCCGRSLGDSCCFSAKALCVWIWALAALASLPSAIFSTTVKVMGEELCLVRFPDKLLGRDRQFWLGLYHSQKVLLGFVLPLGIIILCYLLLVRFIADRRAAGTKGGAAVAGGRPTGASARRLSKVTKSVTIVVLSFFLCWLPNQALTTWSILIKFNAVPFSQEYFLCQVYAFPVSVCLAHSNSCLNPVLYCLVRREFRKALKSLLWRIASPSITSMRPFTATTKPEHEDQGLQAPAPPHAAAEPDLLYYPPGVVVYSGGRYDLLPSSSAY

T2: human LGR7 (human, UniProt Q9HBX9 1-757)
T2 sequence (looked up): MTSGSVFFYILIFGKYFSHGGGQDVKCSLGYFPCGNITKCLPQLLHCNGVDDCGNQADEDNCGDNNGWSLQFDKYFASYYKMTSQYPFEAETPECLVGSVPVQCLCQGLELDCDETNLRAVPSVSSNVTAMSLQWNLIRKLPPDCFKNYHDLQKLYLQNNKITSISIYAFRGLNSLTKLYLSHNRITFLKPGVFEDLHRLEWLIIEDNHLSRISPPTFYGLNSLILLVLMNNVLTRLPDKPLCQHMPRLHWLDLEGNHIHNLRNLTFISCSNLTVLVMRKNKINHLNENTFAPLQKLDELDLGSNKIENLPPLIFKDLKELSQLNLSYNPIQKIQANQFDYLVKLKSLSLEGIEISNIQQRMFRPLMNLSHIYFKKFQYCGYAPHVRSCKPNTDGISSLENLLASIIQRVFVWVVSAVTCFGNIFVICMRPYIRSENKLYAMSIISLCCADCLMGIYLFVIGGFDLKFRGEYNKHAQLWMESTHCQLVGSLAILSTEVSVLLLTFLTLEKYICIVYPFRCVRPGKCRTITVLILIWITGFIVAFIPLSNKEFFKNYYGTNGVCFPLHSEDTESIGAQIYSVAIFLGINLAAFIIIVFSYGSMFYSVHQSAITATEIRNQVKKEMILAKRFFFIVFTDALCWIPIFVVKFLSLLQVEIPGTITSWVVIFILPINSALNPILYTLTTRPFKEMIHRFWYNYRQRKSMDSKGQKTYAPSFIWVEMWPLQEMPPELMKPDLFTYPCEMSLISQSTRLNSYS

T3: rat LGR7 (rat, UniProt Q6R6I6 1-758)
T3 construct: whole, on cells; also called recombinant rat LGR7
T3 sequence (looked up): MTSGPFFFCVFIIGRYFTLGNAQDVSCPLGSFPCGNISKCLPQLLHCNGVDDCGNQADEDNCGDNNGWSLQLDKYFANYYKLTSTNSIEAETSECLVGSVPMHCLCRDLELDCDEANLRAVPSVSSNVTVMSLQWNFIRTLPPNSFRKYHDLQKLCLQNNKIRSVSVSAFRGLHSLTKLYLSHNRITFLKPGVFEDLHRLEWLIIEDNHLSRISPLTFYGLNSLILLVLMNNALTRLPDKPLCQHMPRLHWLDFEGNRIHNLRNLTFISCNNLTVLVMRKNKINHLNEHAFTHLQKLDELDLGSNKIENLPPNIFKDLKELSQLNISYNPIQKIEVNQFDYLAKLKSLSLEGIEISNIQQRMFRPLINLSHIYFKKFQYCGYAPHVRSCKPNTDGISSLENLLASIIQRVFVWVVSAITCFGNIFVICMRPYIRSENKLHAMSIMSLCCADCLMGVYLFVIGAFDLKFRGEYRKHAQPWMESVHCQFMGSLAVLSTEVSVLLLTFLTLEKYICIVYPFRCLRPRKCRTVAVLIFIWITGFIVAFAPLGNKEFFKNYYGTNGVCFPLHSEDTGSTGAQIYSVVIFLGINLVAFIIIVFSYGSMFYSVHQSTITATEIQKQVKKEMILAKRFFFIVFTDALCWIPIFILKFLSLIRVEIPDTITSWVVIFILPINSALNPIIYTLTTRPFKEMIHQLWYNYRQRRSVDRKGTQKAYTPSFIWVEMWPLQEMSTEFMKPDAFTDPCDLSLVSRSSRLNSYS


Tests used:
human GPCR135 = molecular target: T1, human GPCR135; assay: radioligand competition, 50 pM 125I-R3/I5 tracer, COS-7 cells transiently expressing human GPCR135
From the text: (§1) COS-7 cells in 24-well tissue culture plates transiently expressing GPCR135, GPCR142 or LGR7 were used in radioligand binding assays as described by Liu et al., 2005a, J. Biol. Chem., 280:292-300. ¹²⁵I-Relaxin-3/INSL5 (¹²⁵I-R3/I5), a radiolabeled chimeric peptide with the human relaxin-3 B-chain and the human INSL5 A-chain (Liu et al., 2005b), was used at a final concentration of 50 pM as the tracer to characterize the binding properties of all truncated relaxin-3 peptides for GPCR135 and GPCR142. ¹²⁵I-relaxin-2 (PerkinElmer Biosciences, Boston) was used at a final concentration of 50 pM to characterize the binding properties of the truncated peptides for the relaxin receptor (LGR7). The results were analyzed by GraphPad Prism 4.0 software (Graphpad, San Diego). The IC₅₀ values, which are the ligand concentrations that inhibited 50% of the maximum specific binding, were then calculated.

human LGR7 [1] = molecular target: T2, human LGR7; assay: cell-based or functional assay
human GPCR142 = molecular target: T4, human GPCR142 (human, UniProt Q8TDU9 1-374); assay: radioligand competition, 50 pM 125I-R3/I5 tracer, COS-7 cells transiently expressing human GPCR142
T4 construct: whole, on cells
T4 sequence (Q8TDU9 whole entry): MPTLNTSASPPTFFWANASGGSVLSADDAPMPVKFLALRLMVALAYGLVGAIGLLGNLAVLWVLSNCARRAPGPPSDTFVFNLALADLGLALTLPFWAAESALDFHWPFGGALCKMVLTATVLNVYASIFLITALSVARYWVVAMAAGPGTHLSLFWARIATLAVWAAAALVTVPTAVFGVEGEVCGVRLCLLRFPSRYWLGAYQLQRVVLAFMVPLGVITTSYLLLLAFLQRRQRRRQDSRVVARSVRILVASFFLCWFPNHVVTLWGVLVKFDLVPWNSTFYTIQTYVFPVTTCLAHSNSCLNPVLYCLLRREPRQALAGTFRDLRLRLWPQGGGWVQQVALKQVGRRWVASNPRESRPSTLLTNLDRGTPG
From the text: as §1

human LGR7 [2] = molecular target: T2, human LGR7; assay: radioligand competition, 50 pM 125I-relaxin-2 tracer, COS-7 cells transiently expressing human LGR7
From the text: as §1

rat LGR7 = molecular target: T3, rat LGR7; assay: radioligand competition, 125I-relaxin-2 tracer, COS-7 cells transiently expressing rat LGR7
From the text: FIG. 3 illustrates that R3(BΔ23-27)R/I5 is bound by recombinant rat GPCR135 with high affinity, but not by rat LGR7. COS-7 cells transiently expressing recombinant rat GPCR135 or LGR7 were used to characterize the binding affinity of rat GPCR135 (A) and LGR7 for (B) R3(BΔ23-27)R/I5. ¹²⁵I-R3/I5 was used as the tracer for GPCR135 and ¹²⁵I-relaxin-2 was used as the tracer for LGR7 binding. Various concentrations of R3(BΔ23-27)R/I5 were used as the competitor and unlabeled human relaxin-3 was used as the positive control in the binding assay.
as §1, with “The IC₅₀ values, which are the ligand concentrations that inhibited 50% of the maximum specific binding, were then calculated.” left out

human LGR7 [3] = molecular target: T2, human LGR7; assay: radioligand competition, 50 pM 125I-relaxin-2 tracer, COS-7 cells transiently expressing human LGR7; NA = no affinity was observed in radioligand binding assay
From the text: as §1

rat GPCR135 [4] = molecular target: T5, rat GPCR135 (rat, UniProt Q5Y987 29-469); assay: autoradiography, displacement of 125I-R3/I5 from endogenous GPCR135 in rat brain sections
T5 sequence (Q5Y987 entry or part of it): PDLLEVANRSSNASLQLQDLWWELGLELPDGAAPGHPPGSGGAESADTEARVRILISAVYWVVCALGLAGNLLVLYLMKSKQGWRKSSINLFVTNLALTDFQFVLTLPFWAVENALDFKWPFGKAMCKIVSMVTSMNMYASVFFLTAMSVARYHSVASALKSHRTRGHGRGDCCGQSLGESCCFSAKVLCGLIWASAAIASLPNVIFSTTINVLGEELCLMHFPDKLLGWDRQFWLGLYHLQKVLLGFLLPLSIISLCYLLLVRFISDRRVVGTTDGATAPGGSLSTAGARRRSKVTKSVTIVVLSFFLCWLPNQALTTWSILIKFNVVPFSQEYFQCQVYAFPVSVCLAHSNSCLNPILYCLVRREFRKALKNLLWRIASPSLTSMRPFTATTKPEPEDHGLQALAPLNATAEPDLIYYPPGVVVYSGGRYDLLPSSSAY

rat GPCR135 [5] = molecular target: T5, rat GPCR135; assay: radioligand competition, 125I-R3/I5 tracer, COS-7 cells transiently expressing recombinant rat GPCR135

Row | Binder | IC50 (human GPCR135) | EC50, stimulation of β-gal expression in SK-N-MC/CRE-β-gal cells expressing human LGR7 (human LGR7 [1]) | IC50 (human GPCR142) | IC50 (human LGR7 [2]) | binding result (rat LGR7) | binding result (human LGR7 [3]) | IC50 (rat GPCR135 [4]) | IC50 (rat GPCR135 [5])
1 | R3(BΔ26-27) (peptide) chain 1: RAAPYGVRLCGREFIRAVIFTCGGS chain 2: DVLAGLSSSCCKWGCSKSEISSLC | 11.5 nM | 3.3 nM | 9.5 nM | 6.3 nM | – | – | – | –
2 | R3(BΔ23-27)R/I5 (N-terminal pyro-Glu ("<E"), Chimeric two-chain peptide; also called R3(Δ23-27)R/I5; R3(ΔB23-27)R/I5) chain 1: RAAPYGVRLCGREFIRAVIFTCR chain 2: EDLQTLCCTDGCSMTDLSALC | 0.67 nM | – | 2.29 nM | – | no binding | no binding | 0.4 nM | 0.25 nM
3 | R3(BΔ25-27) (peptide) chain 1: RAAPYGVRLCGREFIRAVIFTCGG chain 2: DVLAGLSSSCCKWGCSKSEISSLC | 9.5 nM | 4.1 nM | 11.9 nM | 7.9 nM | – | – | – | –
4 | R3(BΔ23-27)R (probably a misprint) chain 1: RAAPYGVRLCGREFIRAVIFTCR chain 2: DVLAGLSSSCCKWGCSKSEISSLC | 0.95 nM | – | 3.91 nM | ~200 nM | – | – | – | –
5 | R3(BΔ24-27) (peptide) chain 1: RAAPYGVRLCGREFIRAVIFTCG chain 2: DVLAGLSSSCCKWGCSKSEISSLC | 13.5 nM | 4.3 nM | 18.9 nM | 8.9 nM | – | – | – | –
